# Measured values taken from PMC2756588.
# Target: T1, Bbc1, P47068
# T1 sequence (P47068 1-78, looked up): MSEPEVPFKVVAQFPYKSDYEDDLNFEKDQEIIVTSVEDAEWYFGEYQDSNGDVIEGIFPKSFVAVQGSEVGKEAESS
# Assay: SPOT array
# Conditions: median of control spots 796
row,Binder,SPOT intensity
1,NIKVLLNPKLGKPVK,111
2,NVLRKILEIPLHSFS,62
3,ATNVPVAPPPPPASL,0
4,NMLSRPRLAKLPSIR,54

# Target: T2, Pin3, Q06449
# T2 sequence (Q06449 53-122, looked up): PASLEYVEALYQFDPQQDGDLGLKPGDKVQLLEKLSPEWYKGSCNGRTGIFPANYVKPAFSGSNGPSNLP
# Assay: SPOT array
# Conditions: median of control spots 2171
row,Binder,SPOT intensity
1,NIKVLLNPKLGKPVK,2
2,NVLRKILEIPLHSFS,0
3,ATNVPVAPPPPPASL,0
4,NMLSRPRLAKLPSIR,40

# Target: T3, Bzz1-2, P38822
# T3 sequence (P38822 568-633, looked up): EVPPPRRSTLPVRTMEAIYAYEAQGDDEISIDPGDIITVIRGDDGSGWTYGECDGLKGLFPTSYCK
# Assay: SPOT array
# Conditions: median of control spots 4538
row,Binder,SPOT intensity
1,NIKVLLNPKLGKPVK,6
2,NVLRKILEIPLHSFS,5
3,ATNVPVAPPPPPASL,3
4,NMLSRPRLAKLPSIR,11

# Target: T4, Sla1-2, P32790
# T4 sequence (P32790 60-140, looked up): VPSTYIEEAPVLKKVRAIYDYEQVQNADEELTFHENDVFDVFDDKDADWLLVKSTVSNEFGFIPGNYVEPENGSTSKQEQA
# Assay: SPOT array
# Conditions: median of control spots 712
row,Binder,SPOT intensity
1,NIKVLLNPKLGKPVK,0
2,NVLRKILEIPLHSFS,0
3,ATNVPVAPPPPPASL,0
4,NMLSRPRLAKLPSIR,1

# Target: Bem1-2, P29366
# Assay: SPOT array
# Conditions: median of control spots 4347
# Chain of Bem1-2, P29366 (P29366 139-227): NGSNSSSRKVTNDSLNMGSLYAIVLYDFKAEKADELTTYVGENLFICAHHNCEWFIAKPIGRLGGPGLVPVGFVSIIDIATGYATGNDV
row,Binder,SPOT intensity
1,NIKVLLNPKLGKPVK,3
2,NVLRKILEIPLHSFS,0
3,ATNVPVAPPPPPASL,0
4,NMLSRPRLAKLPSIR,18

# Target: T5, Sla1-3, P32790
# T5 sequence (P32790 344-424, looked up): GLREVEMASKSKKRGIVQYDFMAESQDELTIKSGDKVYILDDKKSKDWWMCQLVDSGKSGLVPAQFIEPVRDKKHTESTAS
# Assay: SPOT array
# Conditions: median of control spots 5475
row,Binder,SPOT intensity
1,NIKVLLNPKLGKPVK,8
2,NVLRKILEIPLHSFS,0
3,ATNVPVAPPPPPASL,0
4,NMLSRPRLAKLPSIR,25

# Target: T6, Cyk3, Q07533
# T6 sequence (Q07533 1-83, looked up): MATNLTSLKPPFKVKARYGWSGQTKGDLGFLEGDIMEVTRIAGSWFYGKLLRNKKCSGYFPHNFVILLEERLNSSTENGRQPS
# Assay: SPOT array
# Conditions: median of control spots 1451
row,Binder,SPOT intensity
1,NIKVLLNPKLGKPVK,5
2,NVLRKILEIPLHSFS,1
3,ATNVPVAPPPPPASL,0
4,NMLSRPRLAKLPSIR,1

# Target: T7, Boi2, P39969
# T7 sequence (P39969 32-116, looked up): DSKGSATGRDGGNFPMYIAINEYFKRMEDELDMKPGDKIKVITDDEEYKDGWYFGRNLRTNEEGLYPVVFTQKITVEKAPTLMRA
# Assay: SPOT array
# Conditions: median of control spots 1161
row,Binder,SPOT intensity
1,NIKVLLNPKLGKPVK,0
2,NVLRKILEIPLHSFS,0
3,ATNVPVAPPPPPASL,0
4,NMLSRPRLAKLPSIR,2

# Target: T8, Abp1, P15891
# T8 sequence (P15891 535-592, looked up): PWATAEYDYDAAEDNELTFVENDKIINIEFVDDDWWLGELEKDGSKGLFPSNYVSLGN
# Assay: SPOT array
# Conditions: median of control spots 935
row,Binder,SPOT intensity
1,NIKVLLNPKLGKPVK,93
2,NVLRKILEIPLHSFS,7
3,ATNVPVAPPPPPASL,0
4,NMLSRPRLAKLPSIR,42

# Target: T9, Lsb1, P53281
# T9 sequence (P53281 45-122, looked up): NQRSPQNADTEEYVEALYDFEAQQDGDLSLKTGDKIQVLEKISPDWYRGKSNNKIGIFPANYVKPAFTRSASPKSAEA
# Assay: SPOT array
# Conditions: median of control spots 388
row,Binder,SPOT intensity
1,NIKVLLNPKLGKPVK,1
2,NVLRKILEIPLHSFS,0
3,ATNVPVAPPPPPASL,0
4,NMLSRPRLAKLPSIR,59

# Target: T10, Lsb4, P32793
# T10 sequence (P32793 402-468, looked up): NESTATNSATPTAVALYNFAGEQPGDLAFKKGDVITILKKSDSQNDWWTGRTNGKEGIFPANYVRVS
# Assay: SPOT array
# Conditions: median of control spots 397
row,Binder,SPOT intensity
1,NIKVLLNPKLGKPVK,1
2,NVLRKILEIPLHSFS,0
3,ATNVPVAPPPPPASL,0
4,NMLSRPRLAKLPSIR,10

# Target: T11, Nbp2, Q12163
# T11 sequence (Q12163 103-180, looked up): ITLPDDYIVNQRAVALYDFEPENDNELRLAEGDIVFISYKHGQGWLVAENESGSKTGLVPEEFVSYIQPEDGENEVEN
# Assay: SPOT array
# Conditions: median of control spots 357
row,Binder,SPOT intensity
1,NIKVLLNPKLGKPVK,2
2,NVLRKILEIPLHSFS,0
3,ATNVPVAPPPPPASL,0
4,NMLSRPRLAKLPSIR,0

# Target: T12, Pex13, P80667
# T12 sequence (P80667 295-386, looked up): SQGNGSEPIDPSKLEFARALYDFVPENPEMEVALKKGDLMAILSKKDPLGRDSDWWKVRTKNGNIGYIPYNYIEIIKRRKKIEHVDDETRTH
# Assay: SPOT array
# Conditions: median of control spots 1341
row,Binder,SPOT intensity
1,NIKVLLNPKLGKPVK,6
2,NVLRKILEIPLHSFS,0
3,ATNVPVAPPPPPASL,0
4,NMLSRPRLAKLPSIR,21

# Target: Sho1, P40073
# Assay: SPOT array
# Conditions: median of control spots 1148
# Chain of Sho1, P40073 (P40073 287-367): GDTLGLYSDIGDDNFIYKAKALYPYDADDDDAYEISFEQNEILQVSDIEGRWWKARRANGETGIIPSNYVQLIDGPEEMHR
row,Binder,SPOT intensity
1,NIKVLLNPKLGKPVK,63
2,NVLRKILEIPLHSFS,6
3,ATNVPVAPPPPPASL,0
4,NMLSRPRLAKLPSIR,38

# Target: T13, Boi1, P38041
# T13 sequence (P38041 1-86, looked up): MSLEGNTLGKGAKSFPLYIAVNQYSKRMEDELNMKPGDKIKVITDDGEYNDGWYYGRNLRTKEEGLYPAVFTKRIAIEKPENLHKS
# Assay: SPOT array
# Conditions: median of control spots 1162
row,Binder,SPOT intensity
1,NIKVLLNPKLGKPVK,5
2,NVLRKILEIPLHSFS,6
3,ATNVPVAPPPPPASL,0
4,NMLSRPRLAKLPSIR,5

# Target: T14, Lsb3, P43603
# T14 sequence (P43603 385-451, looked up): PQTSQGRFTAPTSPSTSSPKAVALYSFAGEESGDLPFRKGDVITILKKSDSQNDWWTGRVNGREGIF
# Assay: SPOT array
# Conditions: median of control spots 406
row,Binder,SPOT intensity
1,NIKVLLNPKLGKPVK,0
2,NVLRKILEIPLHSFS,0
3,ATNVPVAPPPPPASL,0
4,NMLSRPRLAKLPSIR,2

# Target: Bem1-1, P29366
# Assay: SPOT array
# Conditions: median of control spots 4282
# Chain of Bem1-1, P29366 (P29366 55-141): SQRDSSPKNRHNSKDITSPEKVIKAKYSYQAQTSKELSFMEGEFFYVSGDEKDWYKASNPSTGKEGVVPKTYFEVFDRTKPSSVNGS
row,Binder,SPOT intensity
1,NIKVLLNPKLGKPVK,2
2,NVLRKILEIPLHSFS,2
3,ATNVPVAPPPPPASL,4
4,NMLSRPRLAKLPSIR,0

# Target: T15, Myo5, Q04439
# T15 sequence (Q04439 1072-1160, looked up): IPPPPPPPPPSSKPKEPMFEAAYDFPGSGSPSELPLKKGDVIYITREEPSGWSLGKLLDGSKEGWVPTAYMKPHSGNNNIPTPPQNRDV
# Assay: SPOT array
# Conditions: median of control spots 471
row,Binder,SPOT intensity
1,NIKVLLNPKLGKPVK,0
2,NVLRKILEIPLHSFS,0
3,ATNVPVAPPPPPASL,0
4,NMLSRPRLAKLPSIR,11

# Target: Rvs167, P39743
# Assay: SPOT array
# Conditions: median of control spots 2707
# Chain of Rvs167, P39743 (P39743 419-482): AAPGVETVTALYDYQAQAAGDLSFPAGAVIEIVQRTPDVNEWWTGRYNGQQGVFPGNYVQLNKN
row,Binder,SPOT intensity
1,NIKVLLNPKLGKPVK,0
2,NVLRKILEIPLHSFS,0
3,ATNVPVAPPPPPASL,0
4,NMLSRPRLAKLPSIR,0

# Target: T16, Fus1, P11710
# T16 sequence (P11710 432-512, looked up): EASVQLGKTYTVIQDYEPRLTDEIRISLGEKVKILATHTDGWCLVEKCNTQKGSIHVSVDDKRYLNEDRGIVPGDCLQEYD
# Assay: SPOT array
# Conditions: median of control spots 1200
row,Binder,SPOT intensity
1,NIKVLLNPKLGKPVK,2
2,NVLRKILEIPLHSFS,35
3,ATNVPVAPPPPPASL,0
4,NMLSRPRLAKLPSIR,12

# Target: T17, Hse1, P38753
# T17 sequence (P38753 208-285, looked up): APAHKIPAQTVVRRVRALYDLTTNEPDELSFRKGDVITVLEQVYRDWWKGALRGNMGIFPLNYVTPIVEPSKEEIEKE
# Assay: SPOT array
# Conditions: median of control spots 1727
row,Binder,SPOT intensity
1,NIKVLLNPKLGKPVK,20
2,NVLRKILEIPLHSFS,5
3,ATNVPVAPPPPPASL,0
4,NMLSRPRLAKLPSIR,216

# Target: T18, Cdc25, P04821
# T18 sequence (P04821 50-136, looked up): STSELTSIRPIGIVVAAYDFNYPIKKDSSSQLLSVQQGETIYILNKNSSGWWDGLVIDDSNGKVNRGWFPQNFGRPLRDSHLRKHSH
# Assay: SPOT array
# Conditions: median of control spots 969
row,Binder,SPOT intensity
1,NIKVLLNPKLGKPVK,96
2,NVLRKILEIPLHSFS,105
3,ATNVPVAPPPPPASL,0
4,NMLSRPRLAKLPSIR,108

# Target: T19, Hof1, Q05080
# T19 sequence (Q05080 590-669, looked up): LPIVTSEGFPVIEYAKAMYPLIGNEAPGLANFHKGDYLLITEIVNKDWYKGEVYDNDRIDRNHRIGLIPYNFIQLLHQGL
# Assay: SPOT array
# Conditions: median of control spots 4086
row,Binder,SPOT intensity
1,NIKVLLNPKLGKPVK,13
2,NVLRKILEIPLHSFS,0
3,ATNVPVAPPPPPASL,0
4,NMLSRPRLAKLPSIR,178

# Target: Myo3, P36006
# Assay: SPOT array
# Conditions: median of control spots 468
row,Binder,SPOT intensity
1,NIKVLLNPKLGKPVK,6
2,NVLRKILEIPLHSFS,0
3,ATNVPVAPPPPPASL,0
4,NMLSRPRLAKLPSIR,9

# Target: T20, Bzz1-1, P38822
# T20 sequence (P38822 478-572, looked up): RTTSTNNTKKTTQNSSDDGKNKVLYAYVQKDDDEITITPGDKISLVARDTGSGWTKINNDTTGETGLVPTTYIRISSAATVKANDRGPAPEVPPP
# Assay: SPOT array
# Conditions: median of control spots 4446
row,Binder,SPOT intensity
1,NIKVLLNPKLGKPVK,2
2,NVLRKILEIPLHSFS,0
3,ATNVPVAPPPPPASL,1
4,NMLSRPRLAKLPSIR,0

# Target: T21, Bud14, P27637
# T21 sequence (P27637 247-328, looked up): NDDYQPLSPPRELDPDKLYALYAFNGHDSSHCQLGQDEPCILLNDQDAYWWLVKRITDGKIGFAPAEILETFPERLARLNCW
# Assay: SPOT array
# Conditions: median of control spots 956
row,Binder,SPOT intensity
1,NIKVLLNPKLGKPVK,27
2,NVLRKILEIPLHSFS,31
3,ATNVPVAPPPPPASL,0
4,NMLSRPRLAKLPSIR,33

# Target: GST
# Assay: SPOT array
# Conditions: median of control spots 978
row,Binder,SPOT intensity
1,NIKVLLNPKLGKPVK,0
2,NVLRKILEIPLHSFS,0
3,ATNVPVAPPPPPASL,0
4,NMLSRPRLAKLPSIR,0
